{"source": "patent US11789012B2", "about": "“Cell death biomarker” (UCL Business PLC, priority 2016, dated 2023)", "molecules": {"B1": {"name": "rTRAIL: recombinant protein that activates the TRAIL pathway by binding to TRAIL-R1 (DR 4) and TRAIL-R2 (DR 5) (protein, UniProt P50591 1-281, looked up)", "Tumor necrosis factor ligand …": "MAMMEVQGGPSLGQTCVLIVIFTVLLQSLCVAVTYVYFTNELKQMQDKYSKSGIACFLKEDDSYWDPNDEESMNSPCWQVKWQLRQLVRKMILRTSEETISTVQEKQQNISPLVRERGPQRVAAHITGTRGRSNTLSSPNSKNEKALGRKINSWESSRSGHSFLSNLHLRNGELVIHEKGFYYIYSQTYFRFQEEIKENTKNDKQMVQYIYKYTSYPDPILLMKSARNSCWSKDAEYGLYSIYQGGIFELKENDRIFVSVTNEHLIDMDHEASFFGAFLVG"}}, "key": {"H2461": {"test_system": "H2461", "test": "rTRAIL response, viability assay, H2461", "assay_type": "cell-based, Human", "settings": "BAP1 Deletion - Frameshift, heterozygous", "description": "(§1) Manual “single dose” combination screening was undertaken using 96 well formats. Cells were plated on day 1 in previously optimized seeding densities in 180 μl if media. On day 2 20 μl of a 10× concentration of […] was added. Cells were then allowed to grow for 72 hrs or 6 days and fixed at the end of the assay. Drug wells were compared to DMSO treated control wells.\n(§2) Single agent high throughput 5 point viability screening was undertaken in 384 well formats using robotic liquid handling with fixing with 4% paraformaldehyde and staining for viability with Syto60 nucleic acid dye (Invitrogen) (see below). Single agent dose response curves were derived for each library of 85-95 drugs according to the experiment used, and log IC50 or area under the curve (AUC) metrics were derived for each library compound in each cell line according to a previously derived formula [18].\n(§3) Adherent cell lines were seeded 24 hours before drugging. Cells were trypsinised and counted before seeding at the optimal density for the size of well (96 or 384) and duration of assay. 72 hr after drug treatment cells were fixed with 4% paraformaldehyde for 30 minutes. […] Quantification of fluorescent signal was achieved using excitation/emission wavelength of 630/695 […]."}, "H2731": {"test_system": "H2731", "test": "rTRAIL response, viability assay, H2731", "assay_type": "cell-based, Human", "settings": "BAP1 Essential Splice, heterozygous", "description": "as §1, §2, §3"}, "[1]": {"test_system": "control normal mesothelial cell line MET-5A", "test": "6-day viability assay, normal mesothelial control line", "assay_type": "cell-based", "settings": "rTRAIL 40 ng/ml", "description": "(§4) FIG. 2A is a volcano plot showing drug-genome interactions in MPM. […] The Y-axis denotes adjusted p-Value, X-axis denotes effect size. Size of circle indicates number of mutant lines in cohort tested. […] Met 5a is a mesothelial normal control line. FIG. 2C is a scatter plot showing AUC following 6 day viability assay in response to 40 ng/ml rTRAIL (normalised to DMSO treated control) in cell lines discretized by BAP1 mutation status. […] Two-tailed t-test, p=0.015.\nas §1\nAdherent cell lines were seeded 24 hours before drugging. Cells were trypsinised and counted before seeding at the optimal density for the size of well (96 or 384) and duration of assay. 72 hr after drug treatment cells were fixed with 4% paraformaldehyde for 30 minutes. Following two washes of dH2O 100 μl Syto60 nucleic acid stain (Invitrogen) was added at a final concentration of 1 μM and plates […] for 1 hr at room temperature. Quantification of fluorescent signal was achieved using excitation/emission wavelength of 630/695 […]."}, "MPP-89": {"test_system": "MPP-89", "test": "rTRAIL response, viability assay, MPP-89", "assay_type": "cell-based, Human", "settings": "BAP1 Wild-type", "description": "as §1, §2, §3"}, "NCI-H226": {"test_system": "NCI-H226", "test": "rTRAIL response, viability assay, NCI-H226", "assay_type": "cell-based, Human", "settings": "BAP1 HomDel, homozygous", "description": "as §1, §2, §3"}, "H226": {"test_system": "H226", "test": "rTRAIL response, viability assay, H226", "assay_type": "cell-based, Human", "settings": "BAP1 Deletion, Homozygous", "description": "as §1, §2, §3"}, "[2]": {"test_system": "mutated BAP1 xenografts (H226 C91A)", "test": "Xenograft mouse model, H226 BAP1 and H226 C91A tumours", "assay_type": "in vivo, mice", "source_text": "FIG. 9A is a protocol of an in vivo experiment. FIG. 9B is a box plot showing the weight of tumours extracted from mice injected with mutant or wild-type BAP1-expressing cells after treatment with rTRAIL. […] FIG. 9C is a graph showing that TRAIL treatment reduces the tumour burden (measured by bioluminescence) of mutated BAP1 xenografts when compared to TRAIL treated wild-type BAP1 xenografts or untreated BAP1 mutated and BAP1 wild-type xenografts.\nGroups of 8 week old NOD.CB17-Prkdcscid/NcrCrl (NOD SCID) mice (Charles River) were injected on each flank with 1 million cells of luciferase transduced mesothelioma cell lines (H226 BAP and H226 C91A) in a 1:1 mixture of matrigel and media. When tumours were established, as assessed by bioluminescent imaging (IVIS), at 14 days following injection of tumour cells, treatment was began with either vehicle or isoleucine zipper TRAIL (izTRAIL). Either vehicle or izTRAIL were given intraperitoneally once daily at a dose of 600 mcg for the duration of the experiment. Tumour size was assessed at days 0, 13, 19, 26 and 41 using bioluminescent imaging (IVIS). Mice were culled at 42 days and tumours removed and weighed. Six mice per group were treated. Researchers were not blinded in these experiments."}, "MDA MB-231": {"test_system": "MDA MB-231", "test": "rTRAIL response after BAP1 knockdown in MDA MB-231", "assay_type": "cell-based", "settings": "MDA MB-231 breast cancer cell line, BAP1 shRNA", "source_text": "(§5) FIG. 8A is a graph showing the effect of rTRAIL on the viability of various cancer cell lines. Bladder (RT4) and Breast (HCC1187) cancer cell lines with nonsense mutations in BAP1 show sensitivity to rTRAIL while renal cell cancer cell lines (769P & RCC10RGB) with missense mutation and wild-type renal (BB65RCC) and bladder cancer (SW1710) cell lines are resistant to TRAIL.\nThe deubiquitinase BAP1 is frequently mutated in pleural mesothelioma (36%), uveal melanoma (47%) and intrahepatic cholangiocarcinomas (25%) as previously noted. To determine whether additional BAP1 mutant tumours occur that may also be amenable to this therapeutic approach, the inventors extended this analysis to a cohort of 5180 tumour samples in 20 cancer types using variant data from The Cancer Genome Atlas (TCGA). Truncating BAP1 mutations were also observed in a diverse range of cancer types, with frequencies of up to 6% (see FIGS. 1b, and c) Carbone, M. et al, Nature Reviews Cancer 13, 153-159 (March 2013). When the inventors extended their analysis to a panel of 1001 cancer cell lines that had previously been submitted for whole exome and copy number analysis, they identified 17 cell lines harbouring truncating mutations in BAP1. These included clear cell kidney cancer, bladder cancer and breast cancer cell lines. […]"}, "NCI-H28": {"test_system": "NCI-H28", "test": "rTRAIL response, viability assay, NCI-H28", "assay_type": "cell-based, Human", "settings": "BAP1 Essential Splice, heterozygous", "description": "as §1, §2, §3"}, "H2869": {"test_system": "H2869", "test": "rTRAIL response, viability assay, H2869", "assay_type": "cell-based, Human", "settings": "BAP1 Wild-type", "description": "as §1, §2, §3"}, "H2373": {"test_system": "H2373", "test": "rTRAIL response, viability assay, H2373", "assay_type": "cell-based, Human", "settings": "BAP1 Wild-type", "description": "as §1, §2, §3"}, "RCC10RGB": {"test_system": "RCC10RGB", "test": "rTRAIL viability, renal cell cancer cell line RCC10RGB", "assay_type": "cell-based", "settings": "BAP1 missense mutation", "source_text": "as §5"}, "RT4": {"test_system": "RT4", "test": "rTRAIL viability, bladder cancer cell line RT4", "assay_type": "cell-based", "settings": "nonsense mutation in BAP1", "source_text": "as §5"}, "mesothelioma cell lines": {"test_system": "mesothelioma cell lines", "test": "Chemical screen, viability of mesothelioma cell lines by BAP1 mutation status", "assay_type": "cell-based, Human", "settings": "6 day viability assay, 40 ng/ml rTRAIL", "description": "as §4\nManual “single dose” combination screening was undertaken using 96 well formats. Cells were plated on day 1 in previously optimized seeding densities in 180 μl if media. On day 2 20 μl of a 10× concentration of media from a stock of drugs was added. […]\nA binary event matrix was compiled for the cell lines in the mesothelioma screen by aggregating copy number and exome data and this was used as input classifiers for genomic correlation. Data from this therapeutic screen was then analysed using a Multivariate Analysis of Variance (MANOVA) to annotate the sensitizing effect of genotype on dose response.\nAdherent cell lines were seeded 24 hours before drugging. Cells were trypsinised and counted before seeding at the optimal density for the size of well (96 or 384) and duration of assay. […] Quantification of fluorescent signal was achieved using excitation/emission wavelength of 630/695 […]."}}}
{"molecule": "B1", "values": [{"measurement": "rTRAIL response", "setting": "H2461", "value": "Sensitive"}, {"measurement": "rTRAIL response", "setting": "H2731", "value": "Sensitive"}, {"measurement": "effect on cell viability", "setting": "[1]", "value": "no significant effect on cell viability"}, {"measurement": "rTRAIL response", "setting": "MPP-89", "value": "Resistant"}, {"measurement": "rTRAIL response", "setting": "NCI-H226", "value": "Sensitive**"}, {"measurement": "rTRAIL response", "setting": "H226", "value": "Sensitive"}, {"measurement": "tumour weight at end of experiment", "setting": "[2]; mutated BAP1 tumours vs wild-type BAP1 tumours with TRAIL or vehicle-treated tumours, intraperitoneally once daily 600 mcg", "value": "significantly less"}, {"measurement": "tumour burden (bioluminescence)", "setting": "[2]; mutated BAP1 xenografts vs wild-type with TRAIL or vehicle-treated xenografts, tracked over 4 weeks", "value": "significantly less"}, {"measurement": "sensitivity to rTRAIL after knockdown of BAP1", "setting": "MDA MB-231", "value": "increases sensitivity"}, {"measurement": "rTRAIL response", "setting": "NCI-H28", "value": "Sensitive"}, {"measurement": "rTRAIL response", "setting": "H2869", "value": "Resistant"}, {"measurement": "rTRAIL response", "setting": "H2373", "value": "Resistant"}, {"measurement": "response to TRAIL (viability)", "setting": "RCC10RGB", "value": "resistant"}, {"measurement": "response to rTRAIL (viability)", "setting": "RT4", "value": "sensitivity"}, {"measurement": "sensitivity of BAP1 mutant cells compared with wild-type counterparts", "setting": "mesothelioma cell lines", "value": "significantly more sensitive"}]}
